From the RNAGym collection of RNA variant scans (doi:10.1073/pnas.2313332121)

B1: TPR t1 (parent)
chain: GACCAAUCUGCCCUCAGAGCUCGAGAACAUCUUCGGAUGCAGAGGAGGCAGGCUUCGGUGGCGCGAUAGCGCCAACGUCCUCAACCUCCAAUGCAUCCCACCACAUGAUGAUGCCUGAAGAGCCUUGGUUUUUUG

Variants of: B1
Assay: polymerase ribozyme fitness, log enrichment relative to wild type (log ratio); higher = more active; in vitro selection for triplet polymerase activity
Procedure, shortened: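 Each subunit of a heterodimeric triplet polymerase ribozyme was represented by a PCR-built, transcribed mutant library that underwent triplicate single-round in vitro selection with frozen incubation at −7 °C. Extended constructs were recovered by gel excision, streptavidin-bead capture and RT-PCR, and Illumina sequencing of input and output libraries kept genotypes with ≥10 input reads and ≥1 read per output. Fitness is the logarithm of genotype enrichment relative to wild-type enrichment, from inverse-variance-weighted replicate averages, with a logarithm base of 2.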

Variant | polymerase ribozyme fitness (log ratio)
GGCCAAUCUGCCCUCAGAGCUCGAGAACAUCUUCGGAUGCAGAGGAGGCAGGCUUCGGUGGAGCGAUAGCGCCAACGUCCUCAAACUCCAAUGCAUCCCACCACAUGAUGAUGCCUGAAGAGCCUUGGUUUUUUG [A2G C62A C85A] | -3.14
GGCCAAUCUGCCCUCAGAGCUCGAGAACAUCUUCGGAUGCAGAGGAGGUAGGCUUCGGUGGAGCGAUAGCGCCAACGUCCUCAACCUCCAAUGGAUCCCACCACAUGAUGAUGCCUGAAGAGCCUUGGUUUUUUG [A2G C49U C62A C94G] | -4.35
GGCCAAUCUGCCCUCAGAGGUCGAGAACAUCUUCGGAUGCAGAGGAGGCAGGCUUCGGUGGCGCGAUAGCCCCAACGUCCUCAACCUCCAAUGCAUCCCACCACAUGAUGAUCCCUGAAGAGCCUUGGUUUUUUG [A2G C20G G71C G113C] | -3
GGCCAAUCUGCCCUCAGAGCUCGAGAACAUCUUCGGAUGCAGAGGAGGCAGGCUUGGGUGGCGCGAUAGCGCCAACGUCCUCAACCUCGCAUGCAUCCCACCACAUGAUGAUGCCUGAAGAGCCUUGGUUUUUUG [A2G C56G C89G A90C] | -2.84
GGCCAAUCUGCCCUCAGAGCUCGAGAACAUCUUCGGAUGCAGAGGAGGCAGGCUUCGGUGGCGCGAUAGCGCCAACGUCCUCAACCUCCAAUGCAUCCCAGCACAUGAUGAUGCCUGAAGAGCCUUGGUUUUUUG [A2G C101G] | -1.53
GGCCAAUCUGCCCUGAGAGCUCGAGAACAUCUUCGGAUGCAGAAGAGGCAGGCUUCGGUGGAGCGAUAGCGCCAACGUCCUCAACCUCCCAUGCAUUCCACCACAUGAUGAUGCCUGAAAAGCCUUGGUUUUUUG [A2G C15G G44A C62A A90C C97U G120A] | -3.89
GGCCAAUCUGCCCUCAGAGCUCGAGAACAUCUUCGGAUGCAGAGGAGGUAGGCUUCGGUGGCGCGAUAGCGCCAACGUACUCAACGUCCAAUGCAUCCCACCACAUGAUGAUGCCUGAAGAGCCUUGGUUUUUUG [A2G C49U C79A C86G] | -2.96
GGCCAAUCUGCCCUCAGAGCUCGAGAACAUCUUCGGAUGCAGAGGAGGCAGGCUUCGGUGGCGCGAUAGAGCCAACGUCCUCAACCUCCAAUGCAUCCCACCACAUGAUGAUGCCUGAAGAGUCUUGGUUUUUUG [A2G C70A C123U] | -0.0496
GGCCAAUCUGCCCUCAGAGCUCGAGAACAUCUUCGGAUGCAGAGGAGGCAGGCUUCGGUGGCGCGAUAGCGCCAACGUCCUCAACCUACAAUACAUCCCACCACAUGAUGAUGCAUUAAGAGCCUUGGUUUUUUG [A2G C88A G93A C115A G117U] | -6.36
GGCCAAUCUGCCCUCAGAGUUCGAGAACAUCUUCGCAUGCAGAGGAGGCAGGCUUCGGUGGCGCGAUAGCGCCAACGUCCUCAACCUCCAAUGCAUCCCACCACAUGAUGAUGCCUGAAGAGUCUUGGUUUUUUG [A2G C20U G36C C123U] | -1.11
GGCCAAUCUGCCCUCAGAGCUCGAGAACAUCUUCGGAUGCAGAGGAGGCAGGCUUCGGUGGCGCGAUAGCGCCAACGUCCUCAACCUCCAAUGCAUCCCACCACAUGAUGAUGCCUGAAGAGUCUUGGUUUUUUG [A2G C123U] | 1.06
GGCCAAUCUGCCCUCAGAGCUCGAGAACAUCUUCGGAUGCAGAGGAGGCAGGCUUCGGUGGUGCGAUAGCGCCAACGUCCUCAACCUCCAAUGCAUCCCACCACAUGAUAAUGGCUGAAGAGCAUUGGUUUUUUG [A2G C62U G110A C114G C124A] | -7.09
GGCCAAUCUGCCCUCAGAGCUCGAGAACAUCUUCGGAUGCAGAGGAGGCAGGCUUCGGUGGCGCGAUAGCGCCAACGUCCUCAACCUCGAAUGCAUCCCACCACAUGAUUAUGCCUGAAGAGCCUUGGUUUUUUG [A2G C89G G110U] | -4.03
GGCCAAUCUGCCCUCAGAGCUCGAGAACAUCUUCGGAUGCAGAGGAGGCAGGCUUCGGUGGCGCGAUAGCGCCAACGUCCUCAACCUACAAUGCAUCCCUCCACAUGAUGAUGCUUGAAGAGCCUUGGUUUUUUG [A2G C88A A100U C115U] | -3.59
GGCCAAUCUGCCCUCAGAGCUCGAGAACAUCUUCGGAUGCAGAGGAGGCAGGCUUCGGUGGCGCGAUAGCGCCAACGUCCUCAACCUCCAAUGCAUCCCACAACAUGAUGAUGUCUGAAGAGCCUUGGUUUUUUG [A2G C102A C114U] | -4.44
GGCCAAUCUGCCUUCAGAGCUCGAGAACAUCUUCGGAUGCAGAGGAGGCAGGCUUCGGUGGCGCGAUACCGCCAACGUCCUCAACCUCCAAUGCAUCCCACCACAUGAUGAUGCCUGAAGAGCCUUGGUUUUUUG [A2G C13U G69C] | -0.807
GGCCAAUCUACCCUCAGAGCUCGAGAACAUCUUCGGAUGCAGAGGAGGCAGGUUUCGGUGGUGCGAUAGCGCCAACGUCCUCAACCUCCGAUGCAUCCCACCACAUGAUGAUGCCUGAAGAGCCUUGGUUUUUUG [A2G G10A C53U C62U A90G] | -0.379
GGCCAAUCUGCCCUCAGAGCUCGAGAACAUCUUCGGAUGCAGAGGAGGCAGGCUUCGGUGGCGCGAUAGCGCCAACGUCCUCAACGUCCAAUGCAUCCCACCACAUGAUGAUGCCUGAAGAGCCUCGGUUUUUUG [A2G C86G U126C] | -2.8
GGCCAAUCUGCCCUCAGAGCUCGAGAACAUCUUCGGAUGCAGAGGAGGCAGGCUUCGGUGGUGCGAUAGCGCCAACGACCUCAACCUCCAAUGCAUCCCACCCCAUGAUGAUGCCUGAAGAGCCUUGGUUUUUUG [A2G C62U U78A A103C] | -5.9
GGCCAAUCUGCCCUCAGAGCUCGAGAACAUCUUCGGAUGAAGAGGAGGCAGGCUUCGGUGGCGCGAUAGCGCCAACGUCCUCAACCUCUAAUGCAUCCCACCACAUGAUGAUGCCUGAAGAGCCUUGGUUUUUUG [A2G C40A C89U] | -1.58
GGCCAAUCUGCCCUCAGAGCUCGAGAAUAUCUUCGGAUGCAGAGGAGGCAGGCUUCGGUGGCGCGAUAGCGCCAACGUCCUCAACCUCCAAUGCAUCCCACCACAUGAUGAUGCCUGAAGAGCCUUGGUUUUUUG [A2G C28U] | -2.27
